Source: the DeepSol protein solubility set

test: soluble on expression in E. coli; label from the status in PepcDB or PDB records

Soluble on expression in E. coli, not soluble:
MGSDKIHHHHHHMALIEGFRVRNYRALRDITLGRLSAEQQGDPLTPFTVVIGKNGVGKSTLFDAFGFVADCLSKDVESACDDKQRGGFERMRSLGTEESIRFDIYYREAKGERPITYELAINLDSSGRPFVESEVLKQRRKGQKHGRPYPFLRLHHGVGKVWAGEEAVETSSGEEDRAQEDVELTDLRQLGIATLGTLKEHPRIKRFRDFLKGWHLSYFHPDSARSIPSAGAQRHLDVHGENIGNVVQYMEREHKERFKTILDRIAAKIPGVHSIRTTVTQDKRVLLQFNDGAFNDPFYAGQMSDGTLKIFAYLLLMEDPEPPPFICIEEPENGLYHRLLDSLASELRSHATGKKNAPQIFVTTHQPYFVDALSTKEVWILEKGKNGFSTICRASDIDLVRNLVEEGLPLGGLWYGDYLDTK
MLVDSFNRVIDYIRVSVTKQCNFRCQYCMPATPLNFFDNEELLPLDNVLEFLKIAIDEGVKKIRITGGEPLLRKGLDEFIAKLHAYNKEVELVLSTNGFLLKKMAKDLKNAGLAQVNVSLDSLKSDRVLKISQKDALKNTLEGIEESLKVGLKLKLNTVVIKSVNDDEILELLEYAKNRHIQIRYIEFMENTHAKSLVKGLKEREILDLIAQKYQIIEAEKPKQGSSKIYTLENGYQFGIIAPHSDDFCQSCNRIRLASDGKICPCLYYQDAIDAKEAIINKDTKNIKRLLKQSVINKPEKNMWNDKNSETPTRAFYYTGGLEHHHHHH
MPLSPYLSFAGNCADAIAYYQQTLGAELLYKLSFGEMPPSAADNEEGCPSGMRFPDTAIAHANMRIAGSDIMMSDASASGRAHYSGFTLVLDTQDVAEGKRWFDNLAAQGQIEMDWQETFWAQGFGKVSDRFGVPWMINVVKHQPAT
MRLAFWLYEGTALHGVSRVTNSMKGVHTVYHAPQGDDYITATYTMLERTPEFPKLSISVVRGQDLARGTSRLPGTVEQVDKHYKPELIVVAPSCSTALLQEDLGQMARASGVDQSKIMVYAVNPFRVAENEAAEGLFTELVRRFAAEQPKTEKPSVNLLGFTSLGFHLRSNLTSLRRMLKTLGIEVNVVAPWGAGIDDLKKLPAAWVNIAPFREIGCQAAGYLKEKFGMPSITEAPLGVNATLRWLRAIIAEVNKIGAEKGMAPMAMPELRDFSLDGQSAPSSVPWFARTADMESFSNKRAFVFGDATQVVGVTKFLKDELGMKIIGAGTYLPKQADWVREQLEGYLPGELMVTDKFQEVSAFIEEEMPELVCGTQMERHSCRKLDVPCMVISAPTHIENHLLGYYPFFGFDGADVMADRVYTSAKLGLEKHLIDFFGDAGLEYEAEEPEAFTEPTMSGNGTVASVSSAEAPSEAAVVTATATGELSWTAEAEKMLGKVPFFVRKKVRKNTDNYAREIGEPVVTADVFRKAKEHLGGLEHHHHHH
MNTAQLTSKQTLSYVEQTALVLLGMGEDAAAKVLQHFTRDETQRVTRAMAKLNGIKSDSARGVIQNFFEDFREHSGIRGASKEYLSNTLRKALGNDLAKGLLNNLYGDEIRNNMQRLQWVEAETLARFIVNEHPQMQAIFLAYLPADSSSAVLKHLPQDYHDEIIFRIAQLQDIDHQVATDLHELVERCIEKVSASQSVPLSGVKQAADIINRFEGDRGSLMEMLKLHDEEVVNAIEEN
MGSDKIHHHHHHMSRAERLIELMITINAKRSFTAGELAEEFSVSKRTILRDLQVLESIGFPLYSKVGAAGGYHVLKERILPPIAFSESEVKSIFFAYQSLEYYNDLPFEQETISVLKKFLNCIPNDIQYNIENIRRKFVFWTPDRHCSTPLLKELFNIVMNEFTIKIEYSSKQKNSVRTIVPIGLYAMNGLWYCPAYCIKSESIKEFRVDRIVKILSIENLSSKKYKVLSSIHDYLKNMEVGTDYHIKINLTDEGVKRCETEFLLARGLKILSKGGYIDMYIPKSTLNWVAEYFLTFGKNATIIEPIELKHLIKSKVLELYNHHCI
MYVDPKVTIETVKTLNTYLKTRAELRSTDHVVIAEKLDDNDKKATTRLKILTKFDEGRFGAIYMVQNESAVDNDVVSVGNSRFIMKTALRQLSSHQIVYRLSREITVLKTLWGQGNDPPPRVPPILHQGKILGVPFYVTSIFDVNLEKCREQMGGGTFCVQSAFHIAQEIFMALKFMHRRQLVHRDVKPTNIALSYQNRDQWYLIDYGDAISVGKKTPISPPDGVTLPFLSLEAHDLLVTSSYSSFQQDLESWFYVIVDLLKPLPWKDNNRIDKVALAKRDFMSRLPNNLTNLPSQILDIGQILKTESPYSEISKKLVEGLASVKTSSSEKWNPEWYDRSATRNLREKKIKNQPRSRESAEAEATAVQTTPTGSTELQNDRRDKSVYVSTIVTKVVDNRKKVSSSNSPTTVSTNKTAVIEDEEDVKKNSPIQKQQDRSVYFNDFPVAAVAQPETGKKKKYRYKMRKQ

Soluble on expression in E. coli, soluble:
MSLEGGKGPRLRDFLSGSLATWALGLAGLVGEAEDSEGEPLWLEKRFLRLSDGALLLRVLGIIAPSSRGGPRMLRGLDGPAAWRVWNLNHLWGRLRDFYQEELQLLILSPPPDLQTLGFDPLSEEAVEQLEGVLRLLLGASVQCEHRELFIRHIQGLSLEVQSELAAAIQEVTQPGAGVVLALSGPDPGELAPAELEMLSRSLMGTLSKLARERDLGAQRLAELLLEREPLCLRPEAPSREGHHHHHH
TFGPVFEDQPLSVLFPEESTEEQVLLACRARASPPATYRWKMNGTEMKLEPGSRHQLVGGNLVIMNPTKAQDAGVYQCLASNPVGTVVSREAILRFGFLQEFSKEERDPVKAHEGWGVMLPCNPPAHYPGLSYRWLLNEFPNFIPTDGRHFVSQTTGNLYIARTNASDLGNYSCLATSHMDFSTKSVFSKFAQLNLAAEDTRLFAPSIKARFPAETYALVGQQVTLECFAFGNPVPRIKWRKVDGSLSPQWTTAEPTLQIPSVSFEDEGTYECEAENSKGRDTVQGRIIVQAQPEWLKVISDTEADIGSNLRWGCAAAGKPRPTVRWLRNGEPLASQNRVEVLAGDLRFSKLSLEDSGMYQCVAENKHGTIYASAELAVQA
MAHHHHHHMSVEEVQNAAAMADEEIPTLEAAEVPQNAKQSKRYAKAMAKMGLKPEPNITKVTIRKVGSLSFAMVQPEVYRFPGTNTFVIFGEAQLEDTSALAQEAAARAAVSGAASASSDAAASVPAAEEDDDEEVDAGDLDEKEINVVMSQANVSRSKAIKALKNNNGDIVNTIMELTM
MSLRISTNQIYQRGLDNLLTQQERLARLQDQQASGIRVRTPSDDPVASAQIELIKQRINNIELFQNNRQAADSALRLEEGILSNAVNSLHRLREIQIQAGNPSLSEEDRKTLAVEAQALLNQLLDYANTKDSNGSYMFSGSKSLTQPVSLNLSGQYVYNGDSTQRFQAVTTSLLVAVNDTGDNVFMRIPSGNGRFAIRETLTPNTGTASVSSGSVTNEAAFVPDNYTMTFALNSQGNLVVMVSGTLSGNVIPPSGLPDDAPLYQEGSAIGFNGMEMVVSGLPKAGDSFSISPAKNESIFSTVQRMINNLNKPYTSSVEKAATQTENNQLLAQIDSALGHILSVQSDLGARLNQLETAEKANNDYLDISAATLKKLREIDEGHHHHHH
MGSSHHHHHHGKTIFVIVPTNEEQVAFLEALAKQDELNFDWQNPPTEPGQPVVILIPSDMVEWFLEMLKAKGIPFTVYVEEGGSENLYFQGGGGGGWPTEDPNELLKSQVWQKYHNQLNERKEYADKLLQDSNYIHRKNNPGE
SASVRIREAKEGDCGDILRLIRELAEFEKLSDQVKISEEALRADGFGDNPFYHCLVAEILPAPGKLLGPCVVGYGIYYFIYSTWKGRTIYLEDIYVMPEYRGQGIGSKIIKKVAEVALDKGCSQFRLAVLDWNQRAMDLYKALGAQDLTEAEGWHFFCFQGEATRKLAGK
MSLNQFTTDLVQALVQKENVTEIFRSHLENAVNTLLASELTAFLDYEKYDRIGFNTGNSRNGSYERTLHTEFGELHLVIPRDRNGDFKQQTVAPYKRSNDTLEAFVIHMFQKGVTTAEIAHLMERMYGHHYTPQTISNMTKVMSEQVEAFRDRTLCARYACVYLDATYIALKRDTVSKEAVYIAVGIREDGSKEVLGYTIAPNESAFVWKELLEDIKSRGVEEILLFISDGLKGISDSVFSIYPASSYQTCCVHLSRTIAHKVRVSDRAEICEDFKSVYRAESLEMGQQALHSFIEKWKSKYPKVTKPLLNNSYLFTFYSFPKSIWRSIYSTNLIESFNKQIKKYSKRKEQFPNEESLERFLVSQFDQYNQRFATRCHIGFDQARAELQMMFKTNEGHHHHHH
